Molecular target: 14-3-3β (UniProt P31946)
Assay: co-IP
Conditions: reference: wild type

| Substance | binding against the reference (sites S138) | binding against the reference (sites S142) |
| --- | --- | --- |
| TFEB (from UniProt P19484) S138A | weaker | – |
| TFEB (from UniProt P19484) S142A | – | weaker |
